The record followed here is the nanobody polyreactivity screen of Harvey et al. (2022).

This data set is described as follows: yeast display, Sf9 membrane polyspecificity reagent, FACS + sequencing; frameworks hold sequencing errors. The method, boiled down:
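A synthetic nanobody library was expressed on Saccharomyces cerevisiae BJ5465 by galactose induction for 36–48 hours. The library was stained for 1 hour at 4 °C with 10% biotinylated, detergent-solubilized Sf9 membrane reagent and enriched with streptavidin microbeads before FACS. Low and high (top ~1%) gates were set on anti-HA fluorescence for expression and streptavidin fluorescence for reagent binding, and each polyreactivity label reflects the gate of origin.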
Take “QVQLVESGGGLVQAGGSLRLSCAASGIIFGKYAMGWYRPAPGKDRELVAAINYSGSTYYADSVKGRFTISRDNAKNTVYLQMNSLKPEDTAVYYCAARNRTFFQPTYYYWGQGTQVTVSS”: the “polyreactivity (PSR sort gate)” value is listed as “high polyreactivity”.

For the sequence “QVQLVESGGGLVQAGGSLRLSCAASGIIFGPYVMGWYRQAPGKERELVATISRTGDTYYADSVKGRFTISRDNAKNTVYLQMNSLKPEDTAVYYCAVEWSAHKYYYWGQGTQVTVSS”, the “polyreactivity (PSR sort gate)” value is recorded as “low polyreactivity”.

Take “QVQLVESGGGLVQAGGSLRLSCAASGIIFGQNAMGWYRQAPGKERELVAAITISGGSTYYADSVKGRFTISRDNAKNTVYLQMNSLKPEDTAVYYCAARRVTWKDIARGYRYGYWGQGTQVTVSS”: the “polyreactivity (PSR sort gate)” value was “low polyreactivity”.

As for “QVQLVESGGGLVQAGGSLRLSCAASGIIFGRYAMGWYRQAPGKERELVATISRSGGTTYYADSVKGRFTISRDNAKNTVYLQMNSLKPEDTAVYYCAARWTSRYDYWGQGTQVTVSS”, the “polyreactivity (PSR sort gate)” value was “high polyreactivity”.

With “QVQLVESGGGLVQAGGSLRLSCAASGIIFGSNAMGWYRQAPGKERELVAAITSGGNTYYADSVKGRFTISRDNAKNTVYLQMNSLKPEDTAVYYCAARRPRRYGYWGQGTQVTVSS”, the “polyreactivity (PSR sort gate)” value was “high polyreactivity”.

As for “QVQLVESGGGLVQAGGSLRLSCAASGIIFGSNAMGWYRQSPGKERELVAAISRNGGRTYYADSVKGRFTISRDNAKNTVYLQMNSLKPEDTAVYYCATRWPHYGGYYYWGQGTQVTVSS”, the “polyreactivity (PSR sort gate)” value is reported as “high polyreactivity”.

Consider “QVQLVESGGGLVQAGGSLRLSCAASGIIFGTYDMGWNRQAPGKERELVAANTSGTSTNYADSVKGRFTISRDNAMNTVYLQMNSLKPEDTAVYYCAADVYLYYPYFGHRRYNYWGQGTQVTVSS”, for which the “polyreactivity (PSR sort gate)” value was “high polyreactivity”.

Consider “QVQLVESGGGLVQAGGSLRLSCAASGIIFGVYAMGWYRQAPGKERELVAAIDGNGSSTYYADSVKGRFTISRDNAKNSVYLQMNSLKPEDTAVYYCNKDVARYPYGKFDYWGQGTQVTVSS”, for which the “polyreactivity (PSR sort gate)” value is reported as “low polyreactivity”.

With “QVQLVESGGGLVQAGGSLRLSCAASGIIFGVYAMGWYRQAPGKERELVAAISWTGGSTFYADSVKGRFTISRDNAKITVYLQMNILKPEDTAVYYCAVDYWSGITWVEYWGQGTQVTVSS”, the “polyreactivity (PSR sort gate)” value is on record as “high polyreactivity”.

Take “QVQLVESGGGLVQAGGSLRLSCAASGIIFGWYAMGWYRQAPGKERELVAAISSGGRTNYADSVKGRFTISRDNAKNTVYLQMNSLKPEDTEVYYCAAAYIRGSRRYDYCGQGTQVTVSS”: the “polyreactivity (PSR sort gate)” value is given as “high polyreactivity”.

With “QVQLVESGGGLVQAGGSLRLSCAASGIIFGWYAMGWYRQAPGTERELVADISSDDSTYYADSVKGRFTISRDNAKNTVYLQMNSLKPEDTAVYDCAAETEYYSYRFDYWGQGTQVTVSS”, the “polyreactivity (PSR sort gate)” value is recorded as “high polyreactivity”.

Take “QVQLVESGGGLVQAGGSLRLSCAASGIIFGYNAMGWYRQAPGKERELVAAISYGGGRSYYADSVKGRFTISRDNAKNTVYFQMNSLKPEDTAVYYCAAQYFASRSYGYDYWGQGTQVTVSS”: the “polyreactivity (PSR sort gate)” value is “high polyreactivity”.

In the case of “QVQLVESGGGLVQAGGSLRLSCAASGIIFGYYAMGGYRQAPGKERELVAAISSRGSRTYYADSVKGRFTISRDNAKNTVYLQMNSLKPEDTAVYYCAARHFARMGYWGQGTQVTVSS”, the “polyreactivity (PSR sort gate)” value was “high polyreactivity”.

On to “QVQLVESGGGLVQAGGSLRLSCAASGIIFGYYAMGWYRQAPAKERELVAAISQSGGDTYYADSVKGRYTISRDLAKNTVYLQMNSVKPEDTAVYYCAASVWYYPMDYWGQGTHVTVSS”, for which the “polyreactivity (PSR sort gate)” value is listed as “low polyreactivity”.

Consider “QVQLVESGGGLVQAGGSLRLSCAASGIIFGYYAMGWYRQAPGKERELVAAIDWTGGNTYYAVSVKGRFTISRDNAKNTVYLQMNSLKPEDTAVYYCAADYNSQEDYWGQGTQVTVSS”, for which the “polyreactivity (PSR sort gate)” value is “low polyreactivity”.

Consider “QVQLVESGGGLVQAGGSLRLSCAASGIIFGYYAMGWYRQAPGKERELVAAISGNGGSTYYADSVKGRFTLSRDNAKITVYLQMNSLKPEDTAVYYCAARRGYRYGPRYDYWGQGTQVTVSS”, for which the “polyreactivity (PSR sort gate)” value was “high polyreactivity”.

As to “QVQLVESGGGLVQAGGSLRLSCAASGIIFGYYAMGWYRQAPGKERELVASIIWSGGSTYYADSVKGRFTISRDNAKNTVYLQMNSLKPEDTAVYYCAAYRYQEYDYWGQGTQVTVSS”, the “polyreactivity (PSR sort gate)” value is “high polyreactivity”.

“QVQLVESGGGLVQAGGSLRLSCAASGIIFHGNAMGWYRQAPGKERELVAAIRWSGGSTYYADSVKGRFTISRDNAKNSVYLPMNSLKPEDTAVYYCNAGRSWRRTHYDYWGQGTQVTVSS”: the “polyreactivity (PSR sort gate)” value is “high polyreactivity”.

As for “QVQLVESGGGLVQAGGSLRLSCAASGIIFIGYAMGWYRQAAGKERELVAAITRSGVSTYYADSVKGRFTISRDNAKNTVYLQMNSLKPEDTAVYYCAARYFGEKYSQGFDYWGQGTQVTVSS”, the “polyreactivity (PSR sort gate)” value was “low polyreactivity”.

On to “QVQLVESGGGLVQAGGSLRLSCAASGIIFIHYAMGWYRQAPGKERELVAAITSGGSTNYADSVKGRFTISRDNAKNTVYLQMNSLKPEDTAVYYCNAEPVASYYRVSDYEYWGQGTQVTVSS”, for which the “polyreactivity (PSR sort gate)” value is “low polyreactivity”.

With “QVQLVESGGGLVQAGGSLRLSCAASGIIFIHYTMGWYRQAPGKERELVAAISWSGGSTYYADSVKGRFTISRDNAKNTVYLQMNSLKPEDTAVYYCAADYIFYHRMYYWGQGTQVTVSS”, the “polyreactivity (PSR sort gate)” value is listed as “high polyreactivity”.
